Assay [1] addresses T1, mKO-FM14-C.
T1 construct: Fragment without linker and leucine zipper, made by in vitro translation; also called C-terminal fragment from 169th to 218th of mKO-FM14; negative control without leucine zipper
T1 chain: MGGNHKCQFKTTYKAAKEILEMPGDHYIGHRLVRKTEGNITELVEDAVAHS
The assay is described as follows: split fluorescent protein complementation in vitro, 20 µl of each in vitro translated fragment in PBS at 37° C., fluorescence after 3, 5 and 7 hours. Here is the method:
(§1) 20 μl of each mKO-FM14-N-LZA and mKO-FM14-C-LZB which was synthesized by in vitro translation was added to 1000 μl of PBS and the total volume was made up to 1040 μl. The mixture was left standing at 37° C. and the fluorescence measurements were carried out every 2 hours (after 3, 5 and 7 hours from the mixing) by a F-2500 (HITACHI). The method of measurement was by the double wavelength excitation and a single wavelength measurement (excitation spectra at 580 nm, green component and orange component were set at 500 nm and 548 nm, respectively) or by the double wavelength excitation and double wavelength measurement (green fluorescence at 509 nm by excitation by 470 nm and orange fluorescence at 560 nm by excitation by 520 nm were obtained) (FIG. 2). Also, as negative controls, 20 μl of each mKO-FM14-N and mKO-FM14-C which was synthesized by in vitro translation and to which no proteins for interaction were fused was added to 1000 μl of PBS and the total volume was made up to 1040 μl. The mixture was left standing at 37° C. and the fluorescence measurements were carried out every 2 hours (after 3, 5 and 7 hours from the mixing) by a F-2500 (HITACHI).

Assay [2] deals with T2, mKO-FM14-C-LZB.
T2 construct: Made by in vitro translation; also called fusion of the C-terminal fragment (169th-218th) of mKO-FM14 with leucine zipper basic (LZB)
T2 chain: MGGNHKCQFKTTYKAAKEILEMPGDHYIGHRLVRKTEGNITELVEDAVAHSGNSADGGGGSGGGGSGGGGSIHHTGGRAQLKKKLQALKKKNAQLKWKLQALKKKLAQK
Put plainly: split fluorescent protein complementation in vitro, in vitro translated proteins mixed in PBS at 37° C., fluorescence after 3, 5 and 7 hours. Here is the method:
as §1

Assay [3] has as its target T2, mKO-FM14-C-LZB. Put plainly: split fluorescent protein complementation in vitro, fluorescence from 1 to 12 hours after mixing. The method, then: as §1, with “The mixture was left standing at 37° C. and the fluorescence measurements were carried out every 2 hours (after 3, 5 and 7 hours from the mixing) by a F-2500 (HITACHI).” left out
By substituting the 70th proline (P) of mKO with various amino acids, variants were obtained in which the ratio of green fluorescence and orange fluorescence was changed according to the passage of time. The variant in which 70th proline (P) was substituted with alanine (A), serine (S), cysteine (C), threonine (T), and valine (V) was designated as mKO-FM5, mKO-FM3, mKO-FM20, mKO-FM24 and mKO-FM14, respectively. Each variant was similarly split into two molecules and similarly fused with LZA and LZB to carry out analyses.

B1: mKO-FM14-N (other)
chain: MVSVIKPEMKMRYYMDGSVNGHEFTIEGEGTGRPYEGHQEMTLRVTMAEGGPMPFAFDLVSHVFCYGHRVFTKYPEEIPDYFKQAFPEGLSWERSLEFEDGGSASVSAHISLRGNTFYHKSKFTGVNFPADGPIMQNQSVDWEPSTEKITASDGVLKGDVTMYLKLEG
notes: Fragment without linker and leucine zipper, made by in vitro translation; also called N-terminal fragment from the 1st to the 168th of mKO-FM14; negative control without leucine zipper
For the molecule B1, the binding result in assay [1] is on record as “no binding”.

B2: mKO-FM14-N-LZA (other)
chain: MVSVIKPEMKMRYYMDGSVNGHEFTIEGEGTGRPYEGHQEMTLRVTMAEGGPMPFAFDLVSHVFCYGHRVFTKYPEEIPDYFKQAFPEGLSWERSLEFEDGGSASVSAHISLRGNTFYHKSKFTGVNFPADGPIMQNQSVDWEPSTEKITASDGVLKGDVTMYLKLEGGNSADGGGGSGGGGSGGGGSIHHTGGRAQLEKELQALEKENAQLEWELQALEKELAQK
notes: Made by in vitro translation; also called fusion of the N-terminal fragment (1st-168th) of mKO-FM14 with leucine zipper acidic (LZA)
B2: the binding result in assay [2] is recorded as “binds”.

B3: mKO-FM24-N-LZA (other)
chain: MVSVIKPEMKMRYYMDGSVNGHEFTIEGEGTGRPYEGHQEMTLRVTMAEGGPMPFAFDLVSHVFCYGHRTFTKYPEEIPDYFKQAFPEGLSWERSLEFEDGGSASVSAHISLRGNTFYHKSKFTGVNFPADGPIMQNQSVDWEPSTEKITASDGVLKGDVTMYLKLEGGNSADGGGGSGGGGSGGGGSIHHTGGRAQLEKELQALEKENAQLEWELQALEKELAQK
notes: N-terminal fragment (1-168) of mKO-FM24 (threonine at position 70) fused with LZA
In the case of B3, in assay [3], the binding result is reported as “binds”.

B4: mKO-FM5-N-LZA (other)
chain: MVSVIKPEMKMRYYMDGSVNGHEFTIEGEGTGRPYEGHQEMTLRVTMAEGGPMPFAFDLVSHVFCYGHRAFTKYPEEIPDYFKQAFPEGLSWERSLEFEDGGSASVSAHISLRGNTFYHKSKFTGVNFPADGPIMQNQSVDWEPSTEKITASDGVLKGDVTMYLKLEGGNSADGGGGSGGGGSGGGGSIHHTGGRAQLEKELQALEKENAQLEWELQALEKELAQK
notes: N-terminal fragment (1-168) of mKO-FM5 (alanine at position 70) fused with LZA
Take B4: the binding result in assay [3] is given as “binds”.

B5: mKO-FM3-N-LZA (other)
chain: MVSVIKPEMKMRYYMDGSVNGHEFTIEGEGTGRPYEGHQEMTLRVTMAEGGPMPFAFDLVSHVFCYGHRSFTKYPEEIPDYFKQAFPEGLSWERSLEFEDGGSASVSAHISLRGNTFYHKSKFTGVNFPADGPIMQNQSVDWEPSTEKITASDGVLKGDVTMYLKLEGGNSADGGGGSGGGGSGGGGSIHHTGGRAQLEKELQALEKENAQLEWELQALEKELAQK
notes: N-terminal fragment (1-168) of mKO-FM3 (serine at position 70) fused with LZA
For the molecule B5, the binding result in assay [3] was “binds”.

B6: mKO-FM20-N-LZA (other)
chain: MVSVIKPEMKMRYYMDGSVNGHEFTIEGEGTGRPYEGHQEMTLRVTMAEGGPMPFAFDLVSHVFCYGHRCFTKYPEEIPDYFKQAFPEGLSWERSLEFEDGGSASVSAHISLRGNTFYHKSKFTGVNFPADGPIMQNQSVDWEPSTEKITASDGVLKGDVTMYLKLEGGNSADGGGGSGGGGSGGGGSIHHTGGRAQLEKELQALEKENAQLEWELQALEKELAQK
notes: N-terminal fragment (1-168) of mKO-FM20 (cysteine at position 70) fused with LZA
With B6, the binding result in assay [3] is given as “binds”.

(Values after patent US20070031912A1 (RIKEN, published 2007).)
